Assay [1] has as its target rPro^ΔN10, recombinant human prothrombin missing amino acids … (human) (UniProt P00734).
Assay [2] deals with rPro^Δ473-487, recombinant human prothrombin with region 473-487 deleted (human) (UniProt P00734).
For assay [3], the target named is rPro^ΔC10, recombinant human prothrombin missing amino acids … (human) (UniProt P00734).
Assay [4] concerns the target rPro^ΔS5V, recombinant human prothrombin with region SVLQV deleted (human) (UniProt P00734).
In assay [5] the target is rPro^ΔSLQ, recombinant human prothrombin with amino acids Ser^478/Leu^480/Gln^481 deleted (human) (UniProt P00734).

Turning to “Human fXa (from UniProt P00742) (enzyme)”, the Rate of Pro molecules cleavage by membrane-bound fXa alone (nM consumed · s^-1 · fXa^-1) in assay [1] was determined as 0.7; in assay [2] it was 0.53; in assay [3] it was 0.35; in assay [4], 0.8.
Consider “prothrombinase (from UniProt P00742) (enzyme)”, for which the Rate of Pro molecules cleavage by prothrombinase (nM consumed · s^-1 · fXa^-1) in assay [1] was 1.5; in assay [2] it was 1; in assay [4], 1.8. Besides, the Km of prothrombinase for rPro activation in assay [5] was determined as 3.2 µM. Further, the kcat/Km of prothrombinase for rPro activation (IIa generation, chromogenic substrate) in assay [5] came to 670000 M⁻¹ s⁻¹.

Source of the values: patent US20210155918A1.
